Data reported in the supplement of paper PMC10567573.

B1: C2orf65 (parent)
chain: QLDWDELETNQQHFHALCHSLLVS
B2: SETD8 (parent)
chain: GKQAPRKKAQGKTQQNRKLTDFYP

Variants of: B1
Assay: protein stability index of a GFP-peptide fusion (GPS, HEK-293T) (PSI 1-6); higher = more stable
Conditions: c terminus: a fixed tail appended
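Further: lentivirally expressed fusions sorted by FACS into six bins by GFP to DsRed ratio, PSI derived from sequencing read proportions per bin multiplied by bin number.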

Protein stability index of substitutions, site by site:
W4: G 2.99 | F 2.54 | H 2.69 | A 2.93 | C 3.19 | D 3.18
D3: W 3.03 | E 2.27 | N 2.01 | T 2.59 | H 1.92 | M 1.05 | C 1.85 | I 2.23 | G 2.85 | F 1.93 | K 1.83 | V 1.73 | S 1.57 | Y 1.47 | P 2.07 | L 1.45 | R 1.85 | A 2.27 | Q 2.1
Q1: C 1.65 | E 2.29 | F 1.81 | T 2.06 | L 1.64 | N 2.25 | I 1.5 | Y 1.68 | M 2.46 | W 1.51 | P 2.48 | V 2.5 | K 1.75 | H 2.22 | R 1.96 | S 2.21 | D 2.67 | A 2.11 | G 2.55
L2: T 2.02 | E 2.97 | S 2.17 | G 2.33 | A 2.68 | V 2.31 | P 3.02 | Y 1.64 | I 1.78 | Q 2.42 | F 1.98 | R 2.25 | W 1.63 | K 2.4 | N 2.31 | H 2.51 | M 1.94 | C 1.95 | D 2.55

Variants of: B2
Assay: as above
Conditions: c terminus: a fixed tail appended

Protein stability index, by site and new letter:
R6: K 3.44 | F 2.43 | T 3.21 | N 4.12 | D 3.67 | P 4.13 | W 2.48 | Y 2.65 | C 2.82 | G 3.55 | V 2.68 | A 3.42 | I 2.76 | E 3.29 | H 3.07 | S 3.46
N16: P 2.45 | Y 1.96 | T 2.53 | M 3.37 | F 2.68 | E 3.65 | S 4.04 | A 3.02 | K 2.91 | V 3.57 | I 3.13
Q14: H 1.57 | V 3.07 | Y 3.4 | I 3.11 | T 3.4 | R 1.85 | G 2.52 | F 1.92 | P 4.36 | W 3.37 | E 3.41 | D 3.06 | S 1.89 | C 2.37 | M 3.64 | A 2.81
G11: A 4.17 | L 3.27 | I 3.73 | S 3.55 | T 2.84 | D 2.94 | E 3.42 | K 2.91 | H 3.56 | R 2.66 | N 3.6 | Y 3.21 | P 3.46 | M 3.29
K18: C 2.89 | E 3.2 | P 2.96 | N 4.19 | L 2.56 | D 4.87 | M 2.06 | S 3.51 | I 4.29 | F 3.85 | T 3.05 | Q 3.45 | A 3.15 | V 3.75 | Y 2.76 | H 2.69
T20: N 3.61 | M 4.3 | H 3.94 | D 4.5 | F 3.06 | C 2.54 | Q 4.11 | P 4.41 | E 4.22 | K 3.54 | I 3.29
Q15: L 2.76 | C 2.15 | D 3.71 | S 3.26 | N 3.07 | H 3.76
T13: D 3.09 | A 3.48 | S 2.04 | V 3.39 | R 3.82 | F 2.37 | E 3.83 | M 2.16 | G 3.35 | N 2.87 | Q 3.93 | I 3.28
L19: F 3.27 | E 4.62
